In patent CN113929774A (INST MICROBIOLOGY CAS, dated 2022):

Target: SARS-CoV-2野生型(WT)活病毒的S蛋白 (hCoV-19/China/CAS-B001/2020) (SARS-CoV-2, UniProt P0DTC2 14-1273)
Assay: cell-based or functional assay

B1: 9K抗体 (antibody, V domains shown)
VH: EVQLVESGGGVVQPGRSLGLSCAVSGFTFSSYAMHWVRQAPGKGLEWVALISNDGTIDSYADSVKGRFTISRDNSKNTLYLRMSSLRAEDTAVYYCARDKEQLVPTFDYWGQGTLVTVSS
VL: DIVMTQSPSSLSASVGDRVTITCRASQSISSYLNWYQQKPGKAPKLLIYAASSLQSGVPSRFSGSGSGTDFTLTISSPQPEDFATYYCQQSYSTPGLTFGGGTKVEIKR
- 中和滴度(半抑制浓度，IC50), live virus CPE assay on Vero E6 cells: 49.4 µg/mL
